This is an account of results in article PMC4319847 (PLoS ONE, 2015).

The target in this assay is Full-length human importin-α1 (h-importin-α1) (1–526) (human, UniProt P52292 1-526). As to the kind of experiment: ITC. Particulars: both partners purified.

What is called Kd is the free concentration of one partner at which half of the binding sites on the other are occupied at equilibrium, for simple one-to-one binding. PKKKRKV (source: synthetic peptide) [SV40 NLS peptide (PKKKRKV)] had a Kd of 102 ± 11 µM.
